Results on 10 molecules are retold here after PMC12439581 (mAbs, 2025).

Numbering of substitutions follows the chain as printed. In names and notes the source's numbering stands. Several values for one entry are separate records, joined by “and”; a condition that tells them apart may be missing. Equal values may be shown once.

In test [1] the target is T1, biotinylated α-cobratoxin from Naja kaouthia (Naja kaouthia, biotin through amine coupling (NHS-PEG4-Biotin), sites not stated).
T1 chain: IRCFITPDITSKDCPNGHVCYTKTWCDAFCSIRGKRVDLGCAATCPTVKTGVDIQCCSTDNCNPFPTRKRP
Put plainly: BLI. The note with it: both partners purified.

Test [2] deals with T2, biotinylated α-elapitoxin-Dpp2d from Dendroaspis polylepis (Dendroaspis polylepis (black mamba), UniProt C0HJD7). The test is described as follows: BLI; […]; association at pH 7.4, dissociation at pH 5.5; 1:1 global fit. To be noted: both partners purified. (In general: In BLI a coated tip is dipped into the sample, and binding shifts an interference pattern.)
T2 sequence (C0HJD7 whole entry): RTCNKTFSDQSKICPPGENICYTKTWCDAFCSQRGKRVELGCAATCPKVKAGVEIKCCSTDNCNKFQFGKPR
Test [3] deals with T2, biotinylated α-elapitoxin-Dpp2d from …. Put plainly: BLI; […]; association at pH 7.4, dissociation at pH 7.4; 1:1 global fit, […]. The note with it: both partners purified.
Test [4] concerns the target T3, biotinylated α-bungarotoxin from Bungarus multicinctus (Bungarus multicinctus). Described as above. The note with it: both partners purified.
Test [5] addresses T4, biotinylated α-elapitoxin-Dpp2d from Dendroaspis polylepis (Dendroaspis polylepis (black mamba), UniProt C0HJD7). The test is described as follows: BLI. The note with it: both partners purified.
Target sequence in this assay (C0HJD7 whole entry): as above
The target of test [6] is biotinylated α-bungarotoxin from Bungarus multicinctus (Bungarus multicinctus, UniProt P60615). The test is described as follows: BLI. The note with it: both partners purified.
Test [7] addresses T4, biotinylated α-elapitoxin-Dpp2d from …. Put plainly: BLI; […]; association at pH 7.4, dissociation at pH 7.4; 1:1 model, global fit; […]. To be noted: both partners purified.
Target sequence in this assay (C0HJD7 whole entry): as above
Test [8] addresses T5, α-bungarotoxin from Bungarus multicinctus (Bungarus multicinctus, UniProt P60615).
T5 construct: source: bought: Latoxan L8115, lyophilized purified protein
The test is described as follows: crystal structure. The note with it: both partners purified.

Test [9] has as its target biotinylated α-cobratoxin from Naja kaouthia (Naja kaouthia, UniProt P01391). The test is described as follows: BLI. The note with it: both partners purified.
Test [10] has as its target T4, biotinylated α-elapitoxin-Dpp2d from …. The test is described as follows: DELFIA (dissociation-enhanced lanthanide fluorescence immunoassay). The note with it: one partner purified.
Test [11] deals with T3, biotinylated α-bungarotoxin from …. The test is described as follows: BLI; […]; association at pH 7.4, dissociation at pH 5.5; 1:1 global fit. The note with it: both partners purified.
The target is the same in test [12]. The test is described as follows: BLI; […]; association at pH 7.4, dissociation at pH 7.4; 1:1 global fit, […]. To be noted: both partners purified. The source holds these as a separate data set.

T3 sequence (P60615 22-95): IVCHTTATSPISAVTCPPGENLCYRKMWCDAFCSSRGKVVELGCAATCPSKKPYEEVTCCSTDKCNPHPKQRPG
biotinylated α-bungarotoxin from Bungarus multicinctus, sequence (P60615 22-95): as above
T5 sequence (P60615 22-95): as above

B1: A12 Fab (Fab, V domains shown)
VH: QVQLVQSGAEVKKPGSSVKVSCKASGGTFSSYAISWVRQAPGQGLEWMGGIIPIFGTANYAQKFQGRVTITADESTSTAYMELRSLRSDDTAVYYCARDNLGYCSGGSCYSDYYYYYMDVWGQGTLVTVSS
VL: NFMLTQPHSVSESPGKTVTFSCTRSSGRIVSDYVHWYQQRPGSAPTTVIYEDNQRPSGVPDRFSGSIDSSSNSASLTISGLKTEDEADYYCQSYDSSNAYVVFGGGTKVTVL
For orientation: Kd means a measure of binding affinity in units of concentration. Low readings indicate tighter binding, high ones weaker binding. What is called koff is the rate constant with which the complex falls apart. A lower koff goes with slow dissociation. Usually kon stands for the rate constant with which the complex forms. For B1, the dissociation constant Kd in test [1] was 4.2 ± 0.9 nM; in [3], 1.4 ± 1.2 nM; in [4], 202 ± 28.2 nM. The off-rate (koff) was 0.00021 s⁻¹ and 0.00053 s⁻¹ in [1]; 0.00036 s⁻¹ in [2]; 0.00015 s⁻¹ in test [3]; 0.0093 s⁻¹ in test [4]. Also, the kon worked out at 55000 M⁻¹ s⁻¹ in test [1], 140000 M⁻¹ s⁻¹ in test [3] and 21000 M⁻¹ s⁻¹ in test [4].

B2: A01 Fab (Fab, V domains shown)
VH: B1 VH
VL: SYELTQPPSVSVAPGRTATITCEGDNIGQQIVHWYQQKPGQAPVAVISSDSDRPSGIPERFSGSNSGNTATLTISRVEAGDEADYYCQVWDSGSDHVVFGGGTKVTVL
notes: also called A01 mAb
In [5], B2 showed a koff of 0.0295 s⁻¹. Moreover, the binding result in [6] is given as “binds”. In test [7], this molecule gave a dissociation constant (Kd) of 2.1 ± 0.1 nM and an off-rate constant (koff) of 0.00017 s⁻¹.

B3: D11 scFv, 6xHis-FLAG removed with TEV protease (construct for crystals) (scFv, V domains shown)
VH: B1 VH
VL: B1 VL with H8R, F20I, R28S, V30G, A44S, S96R, A99H, Y100E, V109L
notes: source: E. coli BL21(DE3), purified (HisTrap, TEV cleavage, SEC)
Turning to B3, in test [8], the binding result is on record as “binds”.

B4: G09 Fab (Fab, V domains shown)
VH: B1 VH
VL: SYELTQPPSVSVAPGRTATITCEGDNIGQQIVHWYRQKSDQAPVVVVYDGSRRPSGIPERFSGSNSGNTATLTISRVEAGDEADYYCQVWDITSDHVVFGGGTQLTVL
For the molecule B4, the binding result in [9] and in [6] was “binds” throughout.

B5: D11 Fab (Fab, V domains shown)
VH: B1 VH
VL: B1 VL with H8R, F20I, R28S, V30G, A44S, S96R, A99H, Y100E, V109L
notes: also called D11 mAb
B5: the off-rate (koff) stood at 0.00012 s⁻¹ in [9] and 0.00015 s⁻¹ in test [7]. Moreover, the binding result in test [6] was “binds”.

B6: B11 Fab (Fab, V domains shown)
VH: B1 VH
VL: SYELTQPPSVSVAPGQTATITCGGHNIGSNIVHWYHQKPGQAPELVISHNTNRPSGIPERFSGSNSGSTATLTISRVEAVDEADYYCQVWDSSSEHVVFGGGTKVTVL
Regarding B6, the binding result in test [9] and in test [6] was “binds” throughout.

B7: A04 Fab (Fab, V domains shown)
VH: B1 VH
VL: SYELTQPPSMSVAPGQTARITCGGDYIGGESVHWYQQKPGRAPVAVVYDDTHRPSGIPERFSGANSGNTATLTISKVEAGDEADYYCQVWDVSSDHVVFGGGTKLTVL
Turning to B7, the binding result in test [9] and in test [6] was “binds” in each case.

B8: C05 scFv with T31D (CDR-L1) (scFv, V domains shown)
VH: B1 VH
VL: B1 VL with F20I, R28S, V30A, A99G, Y100S, V109L
notes: source: E. coli BL21(DE3), in culture supernatant
B8: the binding result in [10] is “binds”.

B9: D11 Fab (Fab, V domains shown)
VH: B1 VH
VL: B1 VL with H8R, F20I, R28S, V30G, A44S, S96R, A99H, Y100E, V109L
Regarding B9, the Kd in test [1] stood at 1.8 ± 0.5 nM; in test [3], 1.4 ± 0.6 nM; in test [12], 116 ± 19.6 nM. Besides, the koff in test [1] was 0.00029 s⁻¹; in [2], 0.00041 s⁻¹; in test [11], 0.005 s⁻¹; in test [12] it was 0.0047 s⁻¹. Moreover, the on-rate constant (kon) is 65000 M⁻¹ s⁻¹ in test [1], 121000 M⁻¹ s⁻¹ in test [3] and 13000 M⁻¹ s⁻¹ in test [12].

B10: E01 Fab (Fab, V domains shown)
VH: B1 VH
VL: NFMLTQPRSVSESPGKTVTISCTRSSGSIGSDYVHWYQQRPGSSPTTVIYEDNRRPSGVPDRFSGSIASSANSASLTISGLRPEDEADYYCQSYDSTTNHVVFGGGTKVTVL
Take B10: the equilibrium dissociation constant (Kd) in test [1] was 6.6 ± 0.9 nM; in [3], 1.3 ± 0.7 nM; in test [4], 271 ± 31.1 nM. The figures for the kon in [1], in test [3] and in [4] were 54000 M⁻¹ s⁻¹, 138000 M⁻¹ s⁻¹ and 23000 M⁻¹ s⁻¹, respectively. Moreover, the koff in test [2] was 0.00049 s⁻¹; in test [3], 0.00014 s⁻¹; in test [4] it was 0.0173 s⁻¹.
